Results on 27 molecules are retold here after patent US20210324054A1.

Where a chain is given by its changes, count along the chain named.

Sequences and labels used below:
B1: WT (recombinant anti-dengue virus NS1 7F8 antibody of Example 2) (antibody, mouse IgG1, kappa, V domains shown)
VH: EVQLQQPGPELVKPGASVKMSCKASGYTVTSYVIHWVRQKPGQGLEWIGYMNAYNDGIKYNEKFIGKAILTSDKSSSTAYMQLSSLTSEDSAVYYCTKEGLFYVMDYWGQGTSVTVSS
VL: QIVLTQSPAIMSASPGEKVTMTCSATSSISYMHWYQQKSGTSPKRWIYDTSKLASPVPVRFSGSGSGTSYSLTISSMEAEDAATYFCQYWRSDLPTFGAGTKLELKR
B2: Mutation 1 (antibody, V domains shown)
VH: B1 VH with V29F, Y32T, A53P, I58L
VL: B1 VL with P56G, Y89Q
B3: Mutation 2 (antibody, V domains shown)
VH: B1 VH with V29F, Y32T, A53G, I58L, E62N
VL: B1 VL with P56A, Y89Q
B4: Mutation 1-13 (antibody, V domains shown)
VH: B1 VH with V29F, Y32S, A53P, I58L, K98R, M105F
VL: B1 VL with I29L, T50S, P56G, Y89W
B5: Mutation 1-15 (antibody, V domains shown)
VH: B1 VH with V29F, Y32T, A53P, M105F
VL: B1 VL with T50S, P56G
B6: Mutation 1-10 (antibody, V domains shown)
VH: B1 VH with V29F, Y32S, A53P
VL: B1 VL with I29L, P56G, Y89W
B7: Mutation 1-20 (antibody, V domains shown)
VH: B1 VH with V29F, A53P, I58L, M105F
VL: B1 VL with T50S, P56G
B8: Mutation 1-8 (antibody, V domains shown)
VH: B1 VH with V29F, A53P, K98R
VL: B1 VL with I29V, P56G, Y89Q
B9: Mutation 1-16 (antibody, V domains shown)
VH: B1 VH with V29F, Y32S, A53P, I58L, K98R
VL: B1 VL with I29L, P56G, Y89W
B10: Mutation 1-18 (antibody, V domains shown)
VH: B1 VH with V29F, Y32T, A53P, I58L, M105F
VL: B1 VL with I29L, T50S, P56G
B11: Mutation 1-22 (antibody, V domains shown)
VH: B1 VH with V29F, Y32S, A53P, I58L, K98R, M105F
VL: B1 VL with I29V, T50S, P56G, Y89W
B12: Mutation 1-1 (antibody, V domains shown)
VH: B1 VH with V29F, Y32S, A53P, M105F
VL: B1 VL with I29L, T50S, P56G, Y89W
B13: Mutation 1-4 (antibody, V domains shown)
VH: B1 VH with V29F, Y32S, A53P, I58L
VL: B1 VL with I29L, P56G, Y89W
B14: Mutation 1-21 (antibody, V domains shown)
VH: B1 VH with V29F, Y32T, A53P, K98R
VL: B1 VL with I29L, P56G, Y89W
B15: Mutation 1-7 (antibody, V domains shown)
VH: B1 VH with V29F, Y32S, A53P, I58L, M105F
VL: B1 VL with I29L, T50S, P56G, Y89W
B16: Mutation 1-3 (antibody, V domains shown)
VH: B1 VH with V29F, Y32T, A53P, K98R, M105F
VL: B1 VL with T50S, P56G
B17: Mutation 1-12 (antibody, V domains shown)
VH: B1 VH with V29F, Y32T, A53P, K98R
VL: B1 VL with P56G
B18: Mutation 1-17 (antibody, V domains shown)
VH: B1 VH with V29F, A53P
VL: B1 VL with I29V, T50S, P56G, Y89W
B19: WT 1-19 (antibody, V domains shown)
VH: B1 VH with E62D
VL: B1 VL with A25G, I29V, T50S, Y89Q, D93V
B20: Mutation 1-11 (antibody, V domains shown)
VH: B1 VH with V29F, A53P, I58L, M105F
VL: B1 VL with I29V, T50S, P56G, Y89Q
B21: Mutation 1-19 (antibody, V domains shown)
VH: B1 VH with V29F, Y32S, A53P, K98R
VL: B1 VL with I29V, P56G, Y89Q
B22: Mutation 1-14 (antibody, V domains shown)
VH: B1 VH with V29F, A53P
VL: B1 VL with I29V, T50S, P56G, Y89Q
B23: Mutation 1-6 (antibody, V domains shown)
VH: B1 VH with V29F, Y32T, A53P
VL: B1 VL with P56G
B24: Mutation 1-9 (antibody, V domains shown)
VH: B1 VH with V29F, Y32T, A53P, I58L, K98R, M105F
VL: B1 VL with T50S, P56G
B25: Mutation 1-2 (antibody, V domains shown)
VH: B1 VH with V29F, A53P, I58L, K98R
VL: B1 VL with I29V, P56G, Y89Q
B26: Mutation 1-5 (antibody, V domains shown)
VH: B1 VH with V29F, A53P, K98R, M105F
VL: B1 VL with I29V, T50S, P56G, Y89Q
B27: Mutation 3 (antibody, V domains shown)
VH: B1 VH with V29L, Y32T, A53K, I58L, E62P
VL: B1 VL with A25V, P56C, Y89Q, D93Q

The target in the first assay is Antigen DN-IV-Ag# (Fapon Biotech Inc.) (dengue virus). The assay can be described thus: indirect ELISA on coated DN-IV-Ag#, antibody diluted 729 times. On the technique in general: ELISA stands for enzyme-linked immunosorbent assay.
In turn, B1 came in with an OD450 (reference 630 nm) of 0.211 OD.
On the same count and under the same terms, to B2 belongs 0.111 OD; to B3, 0.157 OD.

A further assay shares this target. The assay can be described thus: indirect ELISA on coated DN-IV-Ag#, antibody diluted 243 times.
B1 showed an OD450 (reference 630 nm) of 0.2 OD.
For the molecule B2, the OD450 (reference 630 nm) came out at 0.103 OD.
B3: the OD450 (reference 630 nm) stood at 0.11 OD.

The next assay deals with DN-IV quality control recombinant protein (produced by the company) (dengue virus). The assay can be described thus: BLI, antibody on AMC sensor.
The term Kd denotes a measure of binding affinity in units of concentration. By koff is commonly meant the first-order rate constant of dissociation. The kon is a measure of how fast the partners come together. In the case of B1, the Kd came out at 3.15 nM, the koff came out at 0.000139 s⁻¹ and the kon turned out to be 44200 M⁻¹ s⁻¹.
Turning to B4, the Kd amounted to 3.47 nM, the koff was found to be 0.000151 s⁻¹ and the kon turned out to be 43500 M⁻¹ s⁻¹.
For B5, the Kd worked out at 3.79 nM, the koff was 0.00017 s⁻¹ and the kon turned out to be 44800 M⁻¹ s⁻¹.
Taken in the same sequence, the figures for B6 were 2.65 nM, 0.000129 s⁻¹ and 48700 M⁻¹ s⁻¹.
Taken in the same sequence, the figures for B7 were 3.53 nM, 0.000161 s⁻¹ and 45600 M⁻¹ s⁻¹.
B8: the Kd stood at 4.08 nM, the koff amounted to 0.000172 s⁻¹ and the kon amounted to 42200 M⁻¹ s⁻¹.
Taken in the same sequence, the figures for B9 were 3.38 nM, 0.000124 s⁻¹ and 36700 M⁻¹ s⁻¹.
Taken in the same sequence, the figures for B10 were 0.572 nM, 0.000243 s⁻¹ and 425000 M⁻¹ s⁻¹.
In the case of B11, the Kd was 0.59 nM, the koff was 0.000245 s⁻¹ and the association rate constant (kon) worked out at 415000 M⁻¹ s⁻¹.
Taken in the same sequence, the figures for B2 were 2.85 nM, 0.000126 s⁻¹ and 44200 M⁻¹ s⁻¹.
On the same counts, the results for B12 are 0.445 nM, 0.000181 s⁻¹ and 407000 M⁻¹ s⁻¹.
As for B13, the Kd stood at 0.478 nM, the koff turned out to be 0.000234 s⁻¹ and the kon came to 490000 M⁻¹ s⁻¹.
Take B14: the Kd was 0.693 nM, the koff worked out at 0.000269 s⁻¹ and the kon came to 388000 M⁻¹ s⁻¹.
Taken in the same sequence, the figures for B15 were 0.652 nM, 0.00024 s⁻¹ and 368000 M⁻¹ s⁻¹.
Taken in the same sequence, the figures for B16 were 2.9 nM, 0.000119 s⁻¹ and 41100 M⁻¹ s⁻¹.
Taken in the same sequence, the figures for B17 were 2.86 nM, 0.000122 s⁻¹ and 42600 M⁻¹ s⁻¹.
For B18, the Kd is 2.52 nM, the off-rate constant (koff) came to 0.000114 s⁻¹ and the kon worked out at 45200 M⁻¹ s⁻¹.
As to B19, the Kd turned out to be 35.4 nM, the koff amounted to 0.000162 s⁻¹ and the kon turned out to be 4570 M⁻¹ s⁻¹.
On the same counts, the results for B20 are 0.725 nM, 0.0003 s⁻¹ and 414000 M⁻¹ s⁻¹.
Regarding B21, the Kd was determined as 2.41 nM, the koff turned out to be 0.000113 s⁻¹ and the kon was 46800 M⁻¹ s⁻¹.
On the same counts, the results for B22 are 2.75 nM, 0.00012 s⁻¹ and 43600 M⁻¹ s⁻¹.
On to B23, for which the Kd worked out at 0.499 nM, the koff is 0.000249 s⁻¹ and the kon turned out to be 499000 M⁻¹ s⁻¹.
On to B24, for which the dissociation constant (Kd) amounted to 0.66 nM, the koff was 0.000284 s⁻¹ and the kon was found to be 430000 M⁻¹ s⁻¹.
Take B25: the Kd worked out at 2.79 nM, the koff amounted to 0.000116 s⁻¹ and the kon amounted to 41600 M⁻¹ s⁻¹.
Take B26: the Kd amounted to 0.508 nM, the koff turned out to be 0.000213 s⁻¹ and the kon came out at 419000 M⁻¹ s⁻¹.

For a further assay, the target named is Antigen DN-IV-Ag# (Fapon Biotech Inc.) (dengue virus). The assay can be described thus: indirect ELISA on coated DN-IV-Ag#, antibody diluted 3 times.
As to B1, the OD450 (reference 630 nm) amounted to 1.18 OD.
Still for that read-out and setting: to B2 belongs 1.39 OD; to B27, 0.347 OD; to B3, 1.48 OD.

The target is the same in another assay. The assay can be described thus: indirect ELISA on coated DN-IV-Ag#, antibody diluted 81 times.
The molecule B1 came in with an OD450 (reference 630 nm) of 0.24 OD.
Turning to B2, the OD450 (reference 630 nm) amounted to 0.203 OD.
B3 yielded an OD450 (reference 630 nm) of 0.216 OD.

The next assay shares this target. The assay can be described thus: indirect ELISA on coated DN-IV-Ag#, antibody initial.
B1 returned an OD450 (reference 630 nm) of 1.42 OD.
On the same count and under the same terms, to B2 belongs 1.61 OD.
On to B27, for which the OD450 (reference 630 nm) came to 0.923 OD.
The same measure, in the same setting: to B3 belongs 1.59 OD.

For the next assay the target is unchanged. The assay can be described thus: indirect ELISA on coated DN-IV-Ag#, antibody diluted 9 times.
With B1, the OD450 (reference 630 nm) is 0.781 OD.
In the case of B2, the OD450 (reference 630 nm) worked out at 1.07 OD.
As for B27, the OD450 (reference 630 nm) was 0.062 OD.
With B3, the OD450 (reference 630 nm) was 1.05 OD.

The next assay shares this target. The assay can be described thus: indirect ELISA on coated DN-IV-Ag#, antibody diluted 27 times.
The molecule B1 registered an OD450 (reference 630 nm) of 0.398 OD.
The same measure, in the same setting: to B2 belongs 0.445 OD; to B3, 0.578 OD.
